What follows are binders tested against T1, FcγRIIIa extracellular domain, C-terminal His tag (human, UniProt P08637 17-208) (assay: SPR, binding activity relative to GpH7-A5/GpH7-B3/GpL16-k0 (=100)).
T1 construct: extracellular domain; also called 3a
T1 sequence (P08637 other isoform, or with tags, fused parts or gaps): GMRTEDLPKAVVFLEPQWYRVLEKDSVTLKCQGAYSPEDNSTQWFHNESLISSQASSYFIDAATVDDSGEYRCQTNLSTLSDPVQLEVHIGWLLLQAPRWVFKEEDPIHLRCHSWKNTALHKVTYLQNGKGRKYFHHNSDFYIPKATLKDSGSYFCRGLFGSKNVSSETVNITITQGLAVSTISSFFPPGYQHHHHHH

Binder | He/Con 3a [%]
GpH7-A5/GpH7-B3 variant S324_02A/GpL16-k0 (antibody, human IgG1, kappa, He Ab; copies: 1 + 1 + 2) heavy 1: not shown heavy 2: not shown light: DIVMTQSPLSLPVTPGEPASISCQASESLVHSNRNTYLHWYLQKPGQSPQLLIYKVSNRFSGVPDRFSGSGSGTDFTLKISRVEAEDVGVYYCSQNTHVPPTFGQGTKVEIERTVAAPSVFIFPPSDEQLKSGTASVVCLLNNFYPREAKVQWKVDNALQSGNSQESVTEQDSKDSTYSLSSTLTLSKADYEKHKVYACEVTHQGLSSPVTKSFNRGEC | 113
GpH7-A5/GpH7-B3 variant S324_07I/GpL16-k0 (antibody, human IgG1, kappa, He Ab; copies: 1 + 1 + 2) heavy 1: not shown heavy 2: not shown light: DIVMTQSPLSLPVTPGEPASISCQASESLVHSNRNTYLHWYLQKPGQSPQLLIYKVSNRFSGVPDRFSGSGSGTDFTLKISRVEAEDVGVYYCSQNTHVPPTFGQGTKVEIERTVAAPSVFIFPPSDEQLKSGTASVVCLLNNFYPREAKVQWKVDNALQSGNSQESVTEQDSKDSTYSLSSTLTLSKADYEKHKVYACEVTHQGLSSPVTKSFNRGEC | 101
GpH7-A5/GpH7-B3 variant S324_06M/GpL16-k0 (antibody, human IgG1, kappa, He Ab; copies: 1 + 1 + 2) heavy 1: not shown heavy 2: not shown light: DIVMTQSPLSLPVTPGEPASISCQASESLVHSNRNTYLHWYLQKPGQSPQLLIYKVSNRFSGVPDRFSGSGSGTDFTLKISRVEAEDVGVYYCSQNTHVPPTFGQGTKVEIERTVAAPSVFIFPPSDEQLKSGTASVVCLLNNFYPREAKVQWKVDNALQSGNSQESVTEQDSKDSTYSLSSTLTLSKADYEKHKVYACEVTHQGLSSPVTKSFNRGEC | 124
GpH7-A5/GpH7-B3 variant S324_11K/GpL16-k0 (antibody, human IgG1, kappa, He Ab; copies: 1 + 1 + 2) heavy 1: not shown heavy 2: not shown light: DIVMTQSPLSLPVTPGEPASISCQASESLVHSNRNTYLHWYLQKPGQSPQLLIYKVSNRFSGVPDRFSGSGSGTDFTLKISRVEAEDVGVYYCSQNTHVPPTFGQGTKVEIERTVAAPSVFIFPPSDEQLKSGTASVVCLLNNFYPREAKVQWKVDNALQSGNSQESVTEQDSKDSTYSLSSTLTLSKADYEKHKVYACEVTHQGLSSPVTKSFNRGEC | 90.2
GpH7-A5/GpH7-B3 variant S324_09D/GpL16-k0 (antibody, human IgG1, kappa, He Ab; copies: 1 + 1 + 2) heavy 1: not shown heavy 2: not shown light: DIVMTQSPLSLPVTPGEPASISCQASESLVHSNRNTYLHWYLQKPGQSPQLLIYKVSNRFSGVPDRFSGSGSGTDFTLKISRVEAEDVGVYYCSQNTHVPPTFGQGTKVEIERTVAAPSVFIFPPSDEQLKSGTASVVCLLNNFYPREAKVQWKVDNALQSGNSQESVTEQDSKDSTYSLSSTLTLSKADYEKHKVYACEVTHQGLSSPVTKSFNRGEC | 110
GpH7-A5/GpH7-B3 variant S324_10E/GpL16-k0 (antibody, human IgG1, kappa, He Ab; copies: 1 + 1 + 2) heavy 1: not shown heavy 2: not shown light: DIVMTQSPLSLPVTPGEPASISCQASESLVHSNRNTYLHWYLQKPGQSPQLLIYKVSNRFSGVPDRFSGSGSGTDFTLKISRVEAEDVGVYYCSQNTHVPPTFGQGTKVEIERTVAAPSVFIFPPSDEQLKSGTASVVCLLNNFYPREAKVQWKVDNALQSGNSQESVTEQDSKDSTYSLSSTLTLSKADYEKHKVYACEVTHQGLSSPVTKSFNRGEC | 108
GpH7-A5/GpH7-B3 variant S324_08L/GpL16-k0 (antibody, human IgG1, kappa, He Ab; copies: 1 + 1 + 2) heavy 1: not shown heavy 2: not shown light: DIVMTQSPLSLPVTPGEPASISCQASESLVHSNRNTYLHWYLQKPGQSPQLLIYKVSNRFSGVPDRFSGSGSGTDFTLKISRVEAEDVGVYYCSQNTHVPPTFGQGTKVEIERTVAAPSVFIFPPSDEQLKSGTASVVCLLNNFYPREAKVQWKVDNALQSGNSQESVTEQDSKDSTYSLSSTLTLSKADYEKHKVYACEVTHQGLSSPVTKSFNRGEC | 95.5
GpH7-A5/GpH7-B3 variant S324_12R/GpL16-k0 (antibody, human IgG1, kappa, He Ab; copies: 1 + 1 + 2) heavy 1: not shown heavy 2: not shown light: DIVMTQSPLSLPVTPGEPASISCQASESLVHSNRNTYLHWYLQKPGQSPQLLIYKVSNRFSGVPDRFSGSGSGTDFTLKISRVEAEDVGVYYCSQNTHVPPTFGQGTKVEIERTVAAPSVFIFPPSDEQLKSGTASVVCLLNNFYPREAKVQWKVDNALQSGNSQESVTEQDSKDSTYSLSSTLTLSKADYEKHKVYACEVTHQGLSSPVTKSFNRGEC | 98.1
GpH7-A5/GpH7-B3 variant S324_14T/GpL16-k0 (antibody, human IgG1, kappa, He Ab; copies: 1 + 1 + 2) heavy 1: not shown heavy 2: not shown light: DIVMTQSPLSLPVTPGEPASISCQASESLVHSNRNTYLHWYLQKPGQSPQLLIYKVSNRFSGVPDRFSGSGSGTDFTLKISRVEAEDVGVYYCSQNTHVPPTFGQGTKVEIERTVAAPSVFIFPPSDEQLKSGTASVVCLLNNFYPREAKVQWKVDNALQSGNSQESVTEQDSKDSTYSLSSTLTLSKADYEKHKVYACEVTHQGLSSPVTKSFNRGEC | 112
GpH7-A5/GpH7-B3 variant S324_03V/GpL16-k0 (antibody, human IgG1, kappa, He Ab; copies: 1 + 1 + 2) heavy 1: not shown heavy 2: not shown light: DIVMTQSPLSLPVTPGEPASISCQASESLVHSNRNTYLHWYLQKPGQSPQLLIYKVSNRFSGVPDRFSGSGSGTDFTLKISRVEAEDVGVYYCSQNTHVPPTFGQGTKVEIERTVAAPSVFIFPPSDEQLKSGTASVVCLLNNFYPREAKVQWKVDNALQSGNSQESVTEQDSKDSTYSLSSTLTLSKADYEKHKVYACEVTHQGLSSPVTKSFNRGEC | 101
GpH7-A5/GpH7-B3 variant S324_04F/GpL16-k0 (antibody, human IgG1, kappa, He Ab; copies: 1 + 1 + 2) heavy 1: not shown heavy 2: not shown light: DIVMTQSPLSLPVTPGEPASISCQASESLVHSNRNTYLHWYLQKPGQSPQLLIYKVSNRFSGVPDRFSGSGSGTDFTLKISRVEAEDVGVYYCSQNTHVPPTFGQGTKVEIERTVAAPSVFIFPPSDEQLKSGTASVVCLLNNFYPREAKVQWKVDNALQSGNSQESVTEQDSKDSTYSLSSTLTLSKADYEKHKVYACEVTHQGLSSPVTKSFNRGEC | 99.3

The remaining lines, values ahead:

He/Con 3a [%] | Binder
96.2 | GpH7-A5/GpH7-B3 variant S324_19Q/GpL16-k0 (antibody, human IgG1, kappa, He Ab; copies: 1 + 1 + 2) heavy 1: not shown heavy 2: not shown light: DIVMTQSPLSLPVTPGEPASISCQASESLVHSNRNTYLHWYLQKPGQSPQLLIYKVSNRFSGVPDRFSGSGSGTDFTLKISRVEAEDVGVYYCSQNTHVPPTFGQGTKVEIERTVAAPSVFIFPPSDEQLKSGTASVVCLLNNFYPREAKVQWKVDNALQSGNSQESVTEQDSKDSTYSLSSTLTLSKADYEKHKVYACEVTHQGLSSPVTKSFNRGEC
51.3 | GpH7-A5/GpH7-B3 variant Y296_01G/GpL16-k0 (antibody, human IgG1, kappa, He Ab; copies: 1 + 1 + 2) heavy 1: not shown heavy 2: not shown light: DIVMTQSPLSLPVTPGEPASISCQASESLVHSNRNTYLHWYLQKPGQSPQLLIYKVSNRFSGVPDRFSGSGSGTDFTLKISRVEAEDVGVYYCSQNTHVPPTFGQGTKVEIERTVAAPSVFIFPPSDEQLKSGTASVVCLLNNFYPREAKVQWKVDNALQSGNSQESVTEQDSKDSTYSLSSTLTLSKADYEKHKVYACEVTHQGLSSPVTKSFNRGEC
84.9 | GpH7-A5/GpH7-B3 variant V266_06M/GpL16-k0 (antibody, human IgG1, kappa, He Ab; copies: 1 + 1 + 2) heavy 1: not shown heavy 2: not shown light: DIVMTQSPLSLPVTPGEPASISCQASESLVHSNRNTYLHWYLQKPGQSPQLLIYKVSNRFSGVPDRFSGSGSGTDFTLKISRVEAEDVGVYYCSQNTHVPPTFGQGTKVEIERTVAAPSVFIFPPSDEQLKSGTASVVCLLNNFYPREAKVQWKVDNALQSGNSQESVTEQDSKDSTYSLSSTLTLSKADYEKHKVYACEVTHQGLSSPVTKSFNRGEC
103 | GpH7-A5/GpH7-B3 variant S324_18N/GpL16-k0 (antibody, human IgG1, kappa, He Ab; copies: 1 + 1 + 2) heavy 1: not shown heavy 2: not shown light: DIVMTQSPLSLPVTPGEPASISCQASESLVHSNRNTYLHWYLQKPGQSPQLLIYKVSNRFSGVPDRFSGSGSGTDFTLKISRVEAEDVGVYYCSQNTHVPPTFGQGTKVEIERTVAAPSVFIFPPSDEQLKSGTASVVCLLNNFYPREAKVQWKVDNALQSGNSQESVTEQDSKDSTYSLSSTLTLSKADYEKHKVYACEVTHQGLSSPVTKSFNRGEC
117 | GpH7-A5/GpH7-B3 variant V266_08L/GpL16-k0 (antibody, human IgG1, kappa, He Ab; copies: 1 + 1 + 2) heavy 1: not shown heavy 2: not shown light: DIVMTQSPLSLPVTPGEPASISCQASESLVHSNRNTYLHWYLQKPGQSPQLLIYKVSNRFSGVPDRFSGSGSGTDFTLKISRVEAEDVGVYYCSQNTHVPPTFGQGTKVEIERTVAAPSVFIFPPSDEQLKSGTASVVCLLNNFYPREAKVQWKVDNALQSGNSQESVTEQDSKDSTYSLSSTLTLSKADYEKHKVYACEVTHQGLSSPVTKSFNRGEC
56.8 | GpH7-A5/GpH7-B3 variant V266_02A/GpL16-k0 (antibody, human IgG1, kappa, He Ab; copies: 1 + 1 + 2) heavy 1: not shown heavy 2: not shown light: DIVMTQSPLSLPVTPGEPASISCQASESLVHSNRNTYLHWYLQKPGQSPQLLIYKVSNRFSGVPDRFSGSGSGTDFTLKISRVEAEDVGVYYCSQNTHVPPTFGQGTKVEIERTVAAPSVFIFPPSDEQLKSGTASVVCLLNNFYPREAKVQWKVDNALQSGNSQESVTEQDSKDSTYSLSSTLTLSKADYEKHKVYACEVTHQGLSSPVTKSFNRGEC
66.3 | GpH7-A5/GpH7-B3 variant Y296_02A/GpL16-k0 (antibody, human IgG1, kappa, He Ab; copies: 1 + 1 + 2) heavy 1: not shown heavy 2: not shown light: DIVMTQSPLSLPVTPGEPASISCQASESLVHSNRNTYLHWYLQKPGQSPQLLIYKVSNRFSGVPDRFSGSGSGTDFTLKISRVEAEDVGVYYCSQNTHVPPTFGQGTKVEIERTVAAPSVFIFPPSDEQLKSGTASVVCLLNNFYPREAKVQWKVDNALQSGNSQESVTEQDSKDSTYSLSSTLTLSKADYEKHKVYACEVTHQGLSSPVTKSFNRGEC
69.1 | GpH7-A5/GpH7-B3 variant Y296_03V/GpL16-k0 (antibody, human IgG1, kappa, He Ab; copies: 1 + 1 + 2) heavy 1: not shown heavy 2: not shown light: DIVMTQSPLSLPVTPGEPASISCQASESLVHSNRNTYLHWYLQKPGQSPQLLIYKVSNRFSGVPDRFSGSGSGTDFTLKISRVEAEDVGVYYCSQNTHVPPTFGQGTKVEIERTVAAPSVFIFPPSDEQLKSGTASVVCLLNNFYPREAKVQWKVDNALQSGNSQESVTEQDSKDSTYSLSSTLTLSKADYEKHKVYACEVTHQGLSSPVTKSFNRGEC
113 | GpH7-A5/GpH7-B3 variant S324_16H/GpL16-k0 (antibody, human IgG1, kappa, He Ab; copies: 1 + 1 + 2) heavy 1: not shown heavy 2: not shown light: DIVMTQSPLSLPVTPGEPASISCQASESLVHSNRNTYLHWYLQKPGQSPQLLIYKVSNRFSGVPDRFSGSGSGTDFTLKISRVEAEDVGVYYCSQNTHVPPTFGQGTKVEIERTVAAPSVFIFPPSDEQLKSGTASVVCLLNNFYPREAKVQWKVDNALQSGNSQESVTEQDSKDSTYSLSSTLTLSKADYEKHKVYACEVTHQGLSSPVTKSFNRGEC
110 | GpH7-A5/GpH7-B3 variant S324_15Y/GpL16-k0 (antibody, human IgG1, kappa, He Ab; copies: 1 + 1 + 2) heavy 1: not shown heavy 2: not shown light: DIVMTQSPLSLPVTPGEPASISCQASESLVHSNRNTYLHWYLQKPGQSPQLLIYKVSNRFSGVPDRFSGSGSGTDFTLKISRVEAEDVGVYYCSQNTHVPPTFGQGTKVEIERTVAAPSVFIFPPSDEQLKSGTASVVCLLNNFYPREAKVQWKVDNALQSGNSQESVTEQDSKDSTYSLSSTLTLSKADYEKHKVYACEVTHQGLSSPVTKSFNRGEC
113 | GpH7-A5/GpH7-B3 variant V266_07I/GpL16-k0 (antibody, human IgG1, kappa, He Ab; copies: 1 + 1 + 2) heavy 1: not shown heavy 2: not shown light: DIVMTQSPLSLPVTPGEPASISCQASESLVHSNRNTYLHWYLQKPGQSPQLLIYKVSNRFSGVPDRFSGSGSGTDFTLKISRVEAEDVGVYYCSQNTHVPPTFGQGTKVEIERTVAAPSVFIFPPSDEQLKSGTASVVCLLNNFYPREAKVQWKVDNALQSGNSQESVTEQDSKDSTYSLSSTLTLSKADYEKHKVYACEVTHQGLSSPVTKSFNRGEC
